From patent US10500249B2, “Compositions and methods for preventing or treating diseases, conditions, or processes characterized by aberrant fibroblast proliferation and extracellular matrix deposition” (MOERAE MATRIX, INC., priority 2014, dated 2019)

What was measured:
Assay in all cases: Kinase Profiling Assay
Format in all cases: biochemical
Conditions in all cases: 100 μM
Plk3 (h) = Plk3 (h) (Homo sapiens, UniProt Q9H4B4)
Description: (§1) Every kinase activity measurement was conducted in duplicate.
(§2) Specifically, in these assays, a positively charged substrate is phosphorylated with a radiolabeled phosphate group from an ATP if the kinase is not inhibited by an inhibitor peptide. The positively charged substrate then is attracted to a negatively charged filter membrane, quantified with a scintillation counter, and compared to a 100% activity control.
(§3) In addition to determining the IC50 of the compound, the specificity of MK2 inhibitory peptides was assessed by examining activities of all 266 human kinases available for testing in the Millipore kinase profiling service (Table 1).

Ret(V804M) (h) = Ret(V804M) (h) (Homo sapiens, UniProt P07949, V804M)
Description: as §1, §2, §3

Pyk2 (h) = Pyk2 (h) (Homo sapiens, UniProt Q14289)
Description: as §1, §2, §3

EphA7 (h) = EphA7 (h) (Homo sapiens, UniProt Q15375)
Description: as §1, §2, §3

GSK3α (h) = target: T1, GSK3α (h) (Homo sapiens, UniProt P49840)
T1 construct: purchased Millipore
Description: as §1, §2, §3

SAPK2a (h) = SAPK2a (h) (Homo sapiens, UniProt Q16539)
Description: as §1, §2, §3

SAPK4 (h) = target: T2, SAPK4 (h) (Homo sapiens, UniProt O15264)
T2 sequence (O15264 1-365): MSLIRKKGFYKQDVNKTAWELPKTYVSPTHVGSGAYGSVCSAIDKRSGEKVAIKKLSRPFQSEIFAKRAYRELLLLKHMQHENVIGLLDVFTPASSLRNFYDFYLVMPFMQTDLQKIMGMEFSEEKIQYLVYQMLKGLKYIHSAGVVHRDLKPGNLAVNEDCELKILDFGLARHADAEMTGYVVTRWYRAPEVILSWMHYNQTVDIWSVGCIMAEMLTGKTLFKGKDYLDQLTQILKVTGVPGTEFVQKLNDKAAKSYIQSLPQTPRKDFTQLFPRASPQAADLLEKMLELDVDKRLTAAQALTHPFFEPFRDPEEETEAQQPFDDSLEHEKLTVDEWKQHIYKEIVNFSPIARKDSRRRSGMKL
Description: as §1, §2, §3

Tie2(Y897S) (h) = Tie2(Y897S) (h) (Homo sapiens, UniProt Q02763, Y897S)
Description: as §1, §2, §3

NEK7 (h) = target: T3, NEK7 (h) (Homo sapiens, UniProt Q8TDX7)
T3 construct: purchased Millipore
Description: as §1, §2, §3

NEK6 (h) = target: T4, NEK6 (h) (Homo sapiens, UniProt Q9HC98)
T4 construct: purchased Millipore
Description: as §1, §2, §3

EphA4 (h) = EphA4 (h) (Homo sapiens, UniProt P54764)
Description: as §1, §2, §3

CHK2(I157T) (h) = target: T5, CHK2(I157T) (h) (Homo sapiens, UniProt O96017, I157T)
T5 construct: purchased Millipore
Description: as §1, §2, §3

CaMKIV (h) = target: T6, CaMKIV (h) (Homo sapiens, UniProt Q16566)
T6 construct: purchased Millipore
T6 sequence (Q16566 1-473): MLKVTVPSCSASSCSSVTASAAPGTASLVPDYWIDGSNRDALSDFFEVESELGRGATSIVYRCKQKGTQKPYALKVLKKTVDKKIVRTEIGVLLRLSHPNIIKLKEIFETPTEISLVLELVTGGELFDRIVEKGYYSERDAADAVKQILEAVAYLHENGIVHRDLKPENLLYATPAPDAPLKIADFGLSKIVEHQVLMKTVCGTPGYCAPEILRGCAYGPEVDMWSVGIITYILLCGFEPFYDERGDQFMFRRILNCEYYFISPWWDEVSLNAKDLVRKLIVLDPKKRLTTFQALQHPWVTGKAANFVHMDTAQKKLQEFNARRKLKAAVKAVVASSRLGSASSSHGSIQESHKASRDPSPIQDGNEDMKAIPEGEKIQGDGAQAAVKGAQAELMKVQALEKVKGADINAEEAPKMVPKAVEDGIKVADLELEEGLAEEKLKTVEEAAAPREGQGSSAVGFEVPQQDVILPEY
Description: as §1, §2, §3

PAK4 (h) = target: T7, PAK4 (h) (Homo sapiens, UniProt O96013)
T7 construct: purchased Millipore
Description: as §1, §2, §3

CHK2(R145W) (h) = target: T8, CHK2(R145W) (h) (Homo sapiens, UniProt O96017, R145W)
T8 construct: purchased Millipore
Description: as §1, §2, §3

JNK3 (h) = JNK3 (h) (Homo sapiens, UniProt P53779)
Description: as §1, §2, §3

MLK1 (h) = target: T9, MLK1 (h) (Homo sapiens, UniProt P80192)
T9 construct: purchased Millipore
Description: as §1, §2, §3

eEF-2K (h) = target: T10, eEF-2K (h) (Homo sapiens, UniProt O00418)
T10 construct: purchased Millipore
Description: as §1, §2, §3

ACK1 (h) = ACK1 (h) (Homo sapiens, UniProt Q07912)
Description: as §1, §2, §3

Sequence of ACK1 (h) (Q07912 whole entry): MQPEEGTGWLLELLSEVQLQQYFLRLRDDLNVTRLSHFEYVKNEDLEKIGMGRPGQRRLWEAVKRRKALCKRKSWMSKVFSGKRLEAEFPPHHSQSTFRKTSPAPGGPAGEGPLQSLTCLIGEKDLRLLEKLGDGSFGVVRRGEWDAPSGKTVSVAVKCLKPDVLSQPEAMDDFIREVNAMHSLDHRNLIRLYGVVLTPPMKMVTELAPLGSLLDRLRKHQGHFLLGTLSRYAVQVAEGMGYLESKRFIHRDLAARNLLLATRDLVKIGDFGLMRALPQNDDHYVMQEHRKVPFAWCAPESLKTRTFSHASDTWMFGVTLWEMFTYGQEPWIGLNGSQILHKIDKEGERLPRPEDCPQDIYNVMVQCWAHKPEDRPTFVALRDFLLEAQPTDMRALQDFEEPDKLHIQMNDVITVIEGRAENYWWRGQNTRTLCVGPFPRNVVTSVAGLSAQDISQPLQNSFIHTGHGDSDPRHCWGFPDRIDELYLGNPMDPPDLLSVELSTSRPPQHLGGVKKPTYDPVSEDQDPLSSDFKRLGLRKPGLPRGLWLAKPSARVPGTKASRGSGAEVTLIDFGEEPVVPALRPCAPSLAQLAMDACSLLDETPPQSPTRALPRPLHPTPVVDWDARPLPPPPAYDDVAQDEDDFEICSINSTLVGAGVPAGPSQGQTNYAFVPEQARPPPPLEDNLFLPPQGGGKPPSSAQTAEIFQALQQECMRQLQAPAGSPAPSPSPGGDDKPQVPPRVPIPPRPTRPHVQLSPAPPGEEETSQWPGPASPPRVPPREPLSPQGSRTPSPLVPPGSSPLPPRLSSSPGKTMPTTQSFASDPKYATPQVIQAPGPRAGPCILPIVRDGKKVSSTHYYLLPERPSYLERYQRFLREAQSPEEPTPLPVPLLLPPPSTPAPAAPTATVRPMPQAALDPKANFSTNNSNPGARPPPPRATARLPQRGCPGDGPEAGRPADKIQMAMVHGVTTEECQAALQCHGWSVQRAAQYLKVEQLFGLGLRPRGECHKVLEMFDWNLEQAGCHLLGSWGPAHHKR
Sequence of SAPK2a (h) (Q16539 whole entry): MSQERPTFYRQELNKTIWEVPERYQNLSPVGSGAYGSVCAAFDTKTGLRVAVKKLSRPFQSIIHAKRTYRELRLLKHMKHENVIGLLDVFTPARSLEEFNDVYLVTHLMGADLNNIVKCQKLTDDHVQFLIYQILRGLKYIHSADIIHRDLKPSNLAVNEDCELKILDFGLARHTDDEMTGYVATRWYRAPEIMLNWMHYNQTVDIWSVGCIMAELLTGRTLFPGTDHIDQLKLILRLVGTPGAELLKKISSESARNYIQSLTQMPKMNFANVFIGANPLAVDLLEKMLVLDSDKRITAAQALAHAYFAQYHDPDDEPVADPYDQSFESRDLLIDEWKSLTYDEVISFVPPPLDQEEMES
Sequence of EphA4 (h) (P54764 20-986): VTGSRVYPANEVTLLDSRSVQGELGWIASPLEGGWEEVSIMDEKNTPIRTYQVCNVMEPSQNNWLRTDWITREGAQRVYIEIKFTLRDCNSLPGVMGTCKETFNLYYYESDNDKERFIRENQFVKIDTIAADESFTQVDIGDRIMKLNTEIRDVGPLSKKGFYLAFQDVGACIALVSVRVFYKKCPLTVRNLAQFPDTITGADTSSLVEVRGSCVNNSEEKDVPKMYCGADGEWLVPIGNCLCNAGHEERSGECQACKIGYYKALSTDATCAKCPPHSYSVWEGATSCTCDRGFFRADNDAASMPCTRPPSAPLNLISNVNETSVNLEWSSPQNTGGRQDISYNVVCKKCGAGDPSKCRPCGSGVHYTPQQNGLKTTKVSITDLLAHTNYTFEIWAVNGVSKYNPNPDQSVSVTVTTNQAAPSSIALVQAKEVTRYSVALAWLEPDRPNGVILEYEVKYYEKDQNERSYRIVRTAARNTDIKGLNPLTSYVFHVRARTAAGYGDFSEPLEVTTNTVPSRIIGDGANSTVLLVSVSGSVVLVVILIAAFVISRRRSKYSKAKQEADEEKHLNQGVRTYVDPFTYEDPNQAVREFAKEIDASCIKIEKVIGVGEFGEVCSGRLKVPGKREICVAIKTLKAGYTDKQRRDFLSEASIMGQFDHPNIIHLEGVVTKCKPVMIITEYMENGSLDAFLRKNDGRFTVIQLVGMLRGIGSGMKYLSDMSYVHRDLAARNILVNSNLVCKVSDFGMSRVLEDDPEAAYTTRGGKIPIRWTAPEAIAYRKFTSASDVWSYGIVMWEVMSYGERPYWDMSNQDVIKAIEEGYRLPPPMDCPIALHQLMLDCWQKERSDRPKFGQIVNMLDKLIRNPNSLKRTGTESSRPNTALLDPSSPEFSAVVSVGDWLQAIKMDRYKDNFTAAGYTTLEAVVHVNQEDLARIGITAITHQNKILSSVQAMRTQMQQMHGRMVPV
Sequence of Tie2(Y897S) (h) (Q02763 23-1124 Y897S): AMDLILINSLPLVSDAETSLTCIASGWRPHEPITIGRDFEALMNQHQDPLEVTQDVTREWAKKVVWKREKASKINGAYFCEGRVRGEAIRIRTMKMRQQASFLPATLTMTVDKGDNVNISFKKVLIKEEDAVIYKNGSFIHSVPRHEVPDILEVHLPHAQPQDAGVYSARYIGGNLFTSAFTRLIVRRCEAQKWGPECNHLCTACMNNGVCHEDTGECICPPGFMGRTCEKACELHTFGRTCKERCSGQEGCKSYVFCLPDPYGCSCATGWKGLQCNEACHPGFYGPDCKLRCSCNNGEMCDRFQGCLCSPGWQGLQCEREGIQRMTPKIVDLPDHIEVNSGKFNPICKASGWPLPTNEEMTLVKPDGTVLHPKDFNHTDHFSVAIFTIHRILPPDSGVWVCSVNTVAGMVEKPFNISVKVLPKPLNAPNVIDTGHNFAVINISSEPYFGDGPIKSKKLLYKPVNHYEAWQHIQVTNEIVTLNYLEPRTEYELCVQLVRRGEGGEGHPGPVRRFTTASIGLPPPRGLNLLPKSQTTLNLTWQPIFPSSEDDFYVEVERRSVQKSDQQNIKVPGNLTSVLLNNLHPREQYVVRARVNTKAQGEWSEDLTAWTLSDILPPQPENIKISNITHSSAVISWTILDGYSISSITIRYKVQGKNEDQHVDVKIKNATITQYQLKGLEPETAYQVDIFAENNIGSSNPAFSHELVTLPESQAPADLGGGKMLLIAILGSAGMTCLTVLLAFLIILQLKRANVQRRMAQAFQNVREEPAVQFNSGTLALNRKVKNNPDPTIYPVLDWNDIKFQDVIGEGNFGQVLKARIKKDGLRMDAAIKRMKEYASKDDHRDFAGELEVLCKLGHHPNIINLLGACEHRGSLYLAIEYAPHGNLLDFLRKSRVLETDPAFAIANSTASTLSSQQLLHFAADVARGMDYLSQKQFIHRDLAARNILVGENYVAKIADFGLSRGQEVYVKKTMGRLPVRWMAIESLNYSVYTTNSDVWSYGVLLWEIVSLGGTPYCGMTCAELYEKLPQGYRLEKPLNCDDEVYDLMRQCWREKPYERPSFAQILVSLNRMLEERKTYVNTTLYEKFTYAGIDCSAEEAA
Sequence of EphA7 (h) (Q15375 28-998): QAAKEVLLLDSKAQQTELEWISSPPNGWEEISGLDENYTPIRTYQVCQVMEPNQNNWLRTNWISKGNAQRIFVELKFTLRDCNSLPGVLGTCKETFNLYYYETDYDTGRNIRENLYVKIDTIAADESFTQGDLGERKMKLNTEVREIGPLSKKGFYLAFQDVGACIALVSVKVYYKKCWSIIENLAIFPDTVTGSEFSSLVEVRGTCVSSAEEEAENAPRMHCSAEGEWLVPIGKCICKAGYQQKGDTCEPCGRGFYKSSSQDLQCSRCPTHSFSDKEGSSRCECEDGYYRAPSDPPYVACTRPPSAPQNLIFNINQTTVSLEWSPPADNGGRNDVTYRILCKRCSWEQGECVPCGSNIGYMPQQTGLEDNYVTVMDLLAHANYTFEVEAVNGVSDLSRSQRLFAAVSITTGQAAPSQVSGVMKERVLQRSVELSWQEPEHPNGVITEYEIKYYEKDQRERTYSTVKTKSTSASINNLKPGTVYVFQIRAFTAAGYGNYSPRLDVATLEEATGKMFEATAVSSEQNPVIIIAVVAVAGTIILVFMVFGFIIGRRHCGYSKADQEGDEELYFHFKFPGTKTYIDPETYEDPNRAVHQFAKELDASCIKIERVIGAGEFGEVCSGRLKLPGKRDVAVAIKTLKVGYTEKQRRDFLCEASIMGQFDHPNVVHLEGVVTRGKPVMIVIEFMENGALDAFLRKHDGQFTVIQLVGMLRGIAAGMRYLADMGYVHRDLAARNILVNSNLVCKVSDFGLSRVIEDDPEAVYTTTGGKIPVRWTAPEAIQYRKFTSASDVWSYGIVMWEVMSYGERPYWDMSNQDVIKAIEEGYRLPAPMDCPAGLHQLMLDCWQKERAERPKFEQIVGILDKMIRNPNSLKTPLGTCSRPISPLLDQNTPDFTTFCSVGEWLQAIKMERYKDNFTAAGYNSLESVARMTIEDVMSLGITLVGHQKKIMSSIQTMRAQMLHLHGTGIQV
T8 sequence (O96017 whole entry R145W): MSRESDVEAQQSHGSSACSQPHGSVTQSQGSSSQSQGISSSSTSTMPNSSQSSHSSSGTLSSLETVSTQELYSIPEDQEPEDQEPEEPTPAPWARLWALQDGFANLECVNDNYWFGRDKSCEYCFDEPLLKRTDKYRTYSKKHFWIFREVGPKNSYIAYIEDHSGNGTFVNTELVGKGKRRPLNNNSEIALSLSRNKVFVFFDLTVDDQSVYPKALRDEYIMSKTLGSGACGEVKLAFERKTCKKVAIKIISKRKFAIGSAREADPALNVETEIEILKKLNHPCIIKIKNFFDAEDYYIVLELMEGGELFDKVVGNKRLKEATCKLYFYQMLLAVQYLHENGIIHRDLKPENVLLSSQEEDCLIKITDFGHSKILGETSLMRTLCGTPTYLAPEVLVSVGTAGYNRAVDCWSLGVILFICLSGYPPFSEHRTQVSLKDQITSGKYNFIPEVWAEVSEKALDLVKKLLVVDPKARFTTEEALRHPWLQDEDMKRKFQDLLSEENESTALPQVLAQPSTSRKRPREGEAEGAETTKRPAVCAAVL
T5 sequence (O96017 whole entry I157T): as the sequence (O96017 whole entry R145W) above, with W145R, I157T counted along it

Sequence: FAKLAARLYRKALARQLGVAA [MMI-0300]
- % activity (Plk3 (h)): 127%
- % activity (Ret(V804M) (h)): 95%
- % activity (Pyk2 (h)): 47%
- % activity (EphA7 (h)): 159%
- % activity (GSK3α (h)): 157%
- % activity (SAPK2a (h)): 90%
- % activity (SAPK4 (h)): 96%
- % activity (Tie2(Y897S) (h)): 83%
- % activity (NEK7 (h)): 84%
- % activity (NEK6 (h)): 82%
- % activity (EphA4 (h)): 88%
- % activity (CHK2(I157T) (h)): 43%
- % activity (CaMKIV (h)): 17%
- % activity (PAK4 (h)): 94%
- % activity (CHK2(R145W) (h)): 33%
- % activity (JNK3 (h)): 89%
- % activity (MLK1 (h)): 40%
- % activity (eEF-2K (h)): 91%

Sequence: HRRIKAWLKKIKALARQLGVAA (Mammalian) [MMI-0500]
- % activity (Plk3 (h)): 122%
- % activity (Ret(V804M) (h)): 36%
- % activity (Pyk2 (h)): 46%
- % activity (EphA7 (h)): 189%
- % activity (GSK3α (h)): 175%
- % activity (SAPK2a (h)): 52%
- % activity (SAPK4 (h)): 48%
- % activity (Tie2(Y897S) (h)): 80%
- % activity (NEK7 (h)): 89%
- % activity (NEK6 (h)): 49%
- % activity (EphA4 (h)): 48%
- % activity (CHK2(I157T) (h)): 3%
- % activity (CaMKIV (h)): −1%
- % activity (PAK4 (h)): 86%
- % activity (ACK1 (h)): 64%
- % activity (CHK2(R145W) (h)): 3%
- % activity (JNK3 (h)): 171%
- % activity (MLK1 (h)): 43%
- % activity (eEF-2K (h)): 43%

Sequence: KAFAKLAARLYRKALARQLGVAA [MMI-0400]
- % activity (Plk3 (h)): 129%
- % activity (Ret(V804M) (h)): 87%
- % activity (Pyk2 (h)): 34%
- % activity (EphA7 (h)): 222%
- % activity (GSK3α (h)): 164%
- % activity (SAPK2a (h)): 85%
- % activity (SAPK4 (h)): 91%
- % activity (Tie2(Y897S) (h)): 87%
- % activity (NEK7 (h)): 87%
- % activity (NEK6 (h)): 85%
- % activity (EphA4 (h)): 65%
- % activity (CHK2(I157T) (h)): 41%
- % activity (CaMKIV (h)): 18%
- % activity (PAK4 (h)): 89%
- % activity (ACK1 (h)): 95%
- % activity (CHK2(R145W) (h)): 31%
- % activity (JNK3 (h)): 70%
- % activity (MLK1 (h)): 33%
- % activity (eEF-2K (h)): 43%

Sequence: YARAAARQARAKALNRQLGVA (Mammalian) [MMI-0200]
- % activity (Pyk2 (h)): 127%
- % activity (EphA7 (h)): 220%
- % activity (Tie2(Y897S) (h)): 85%
- % activity (NEK7 (h)): 96%
- % activity (NEK6 (h)): 98%
- % activity (EphA4 (h)): 127%
- % activity (CHK2(I157T) (h)): 85%
- % activity (CaMKIV (h)): 71%
- % activity (PAK4 (h)): 98%
- % activity (ACK1 (h)): 97%
- % activity (CHK2(R145W) (h)): 81%
- % activity (JNK3 (h)): 90%
- % activity (MLK1 (h)): 84%
